Data: the supplement of paper PMC10567573
± gives the standard deviation.

Assay: protein stability index of a GFP-peptide fusion (GPS, HEK-293T) (PSI 1-6); higher = more stable
[1] = treatment: DMSO, c terminus: a fixed tail appended
[2] = treatment: MLN4924 1 uM, 8 h, c terminus: a fixed tail appended
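Further: 24-mer peptide tiles fused after GFP, lentivirally expressed, FACS-sorted into six equal bins by GFP/DsRed ratio, decoded by Illumina sequencing, PSI is the read-weighted mean bin number.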

Sequence	protein stability index [1]	protein stability index [2]	protein stability index (treatment: DMSO, c terminus: native)	protein stability index (treatment: MLN4924 1 uM, 8 h, c terminus: native)
IKSSLKDEYQYSFWDLFRSKDNMR [SLC2A12]	2.39 ± 0.23	2.3 ± 0.21	–	–
EFVTLKAIALANSDSMHIEDVEAV [ESRRG]	3.39 ± 0.38	3.31 ± 0.29	–	–
KCGSGARGGDGEVASAPLQPPVPS [TRADD]	4.79 ± 0.24	4.78 ± 0.36	–	–
AMVEFVKLLNRCCHLFSTYVASHK [ACBD3]	2.97 ± 0.19	2.85 ± 0.16	–	–
AVNLIESGACGAFVHGLEDEMYEV [INTS4]	3.41 ± 0.24	3.45 ± 0.33	–	–
GFLTVTNLGVENMNHYKKTTLEIH [PTPN9]	1.93 ± 0.59	1.92 ± 0.4	–	–
AGSEQKGQIIKDIDSGSPAEEAGL [PDZK1]	5.61 ± 0.11	5.26 ± 0.27	–	–
CPTEPPDDSCQDQPGTNCALAIKV [ADAMTSL2]	4.95 ± 0.31	5.03 ± 0.41	–	–
KRKRVDVEESEASSSVSISHSASA [LMNB1]	5.29 ± 0.29	5.42 ± 0.17	–	–
NTIAFRHLFLLGYSDGADDTFAAY [MCOLN1]	2.46 ± 0.66	2.33 ± 0.12	–	–
HLTVVAIFYGSGIFNYMRLGSTKL [OR3A1]	3.1 ± 0.62	2.76 ± 0.37	–	–
RFFLGDLCSRQDLYPALKGVNTVF [NSDHL]	2.19 ± 0.26	2.14 ± 0.54	–	–
FYPALWPQLRICLRVSPAEQPRLE [FBXO33]	2.39 ± 0.46	2.3 ± 0.27	–	–
VCGKSFSRTTCLFLHLRTHTEERP [ZNF8]	2.23 ± 0.56	1.93 ± 0.38	–	–
LDVRARLECEINTYRSLLESEDCK [KRT33B]	4.23 ± 0.16	4.38 ± 0.25	–	–
ESILMSLPLTARWEYMHSPSENSK [CPOX]	3.45 ± 0.57	3.93 ± 0.33	–	–
DARVKRKLRGPEPAATEAYGSGDT [TBX6]	5.16 ± 0.3	5.24 ± 0.22	–	–
AVPTDEARAFAEKNGLSFIETSAL [RAB11A]	2.9 ± 0.34	3.37 ± 0.52	–	–
CMYEHGEDTHQSPEPEDEPGGPGA [RSPH3]	5.42 ± 0.29	5.51 ± 0.17	–	–
ISPGRVYEYTSCTTFSTTSGYMEG [FBXO3]	2.78 ± 0.22	2.69 ± 0.36	–	–
DDTETVPSEQSHASGKLRKKKKKQ [TCF25]	5.52 ± 0.44	5.88 ± 0.17	–	–
TSRAPSTYTYTSRPRALPCQRSRY [RSPH3]	3.65 ± 0.15	3.84 ± 0.31	–	–
VGGYGTRLRPLTLSTPKPLVDFCN [GMPPB]	2.41 ± 0.16	2.46 ± 0.14	–	–

Sequence	protein stability index [1]	protein stability index [2]	protein stability index (treatment: DMSO, c terminus: native)	protein stability index (treatment: MLN4924 1 uM, 8 h, c terminus: native)
FARFCKSQESALGNTVPAVEPGTP [DNAAF3]	3.63 ± 0.25	3.58 ± 0.21	–	–
TLLAIGTKLPENQAIQMRLVDVAC [INTS4]	2.12 ± 0.19	2.09 ± 0.15	–	–
SYAFGKFPTVVWTWWIMFLSTFSV [SOAT1]	2.98 ± 0.57	2.97 ± 0.29	–	–
ITRESHTHRDRPSQQQPLRNQVVS [CSNK1G1]	4.49 ± 0.21	4.37 ± 0.23	–	–
LLNLVDHTEVVRDLTFAPDGSLIL [WSB1]	2.24 ± 0.13	2.16 ± 0.16	–	–
LRYYYDKNIIHKTSGKRYVYRFVC [ETS2]	2.79 ± 0.48	2.53 ± 0.62	–	–
GGLATGIAGGLAGMGGIQNEKETM [KRT18]	4.95 ± 0.33	4.58 ± 0.39	–	–
KREREKEDIALNKHRSRRKWCFWN [RHOBTB1]	2.65 ± 0.29	3.07 ± 0.51	–	–
ELRPRRGRCGPQAARAAGRDVAAE [POMT2]	3.58 ± 0.37	3.67 ± 0.086	–	–
YPGIRAGRKNAAPLTIRPPTDWE [TRIM39]	–	–	3.44 ± 0.31	3.9 ± 0.36
PVEEPEPKPDRLLVLKVLWNDFLM [SLC19A2]	2.21 ± 0.2	2.17 ± 0.19	–	–
RFQAMEETHLRHMKALLGSYAHSV [FCHO1]	2.38 ± 0.37	2.38 ± 0.31	–	–
VLYLMMPIVNISEVLGPLCLMLLM [PHTF1]	3.07 ± 0.62	2.67 ± 0.47	–	–
LRTHIDAIILALPEDLQGILLKTG [DENND6A]	2.17 ± 0.31	2.4 ± 0.084	–	–
HWDGYSKGVNRKLGRTGLYPSYKV [FUT8]	2.5 ± 0.32	2.53 ± 0.18	–	–
HPKDGPSPGGTLMDLSERQEVSSV [DLC1]	5.15 ± 0.25	5.23 ± 0.21	–	–
LYVVIPTRRSTAEAFQIVLSHLLG [SPNS1]	2.72 ± 0.4	2.71 ± 0.33	–	–
ELNKQVVSSSEQLQSYQAEIIELR [KRT33B]	3.76 ± 0.3	3.99 ± 0.34	–	–
IEADRRRAQLHVQGLLHEAGSTDD [SPNS1]	4.87 ± 0.18	5.1 ± 0.33	–	–
KLNLCEDGPCHKRRASICCTQLGS [SCARA5]	3.12 ± 0.2	3.3 ± 0.27	–	–
PEDLAQLEELIDMAVLEEIQQELI [RPAIN]	2.54 ± 0.14	2.89 ± 0.41	–	–
MASPCSAMAYHHDSRRIFVGQDNG [WDFY1]	2.64 ± 0.18	2.67 ± 0.11	–	–
